Consider 15 molecules from patent publication US20190330344A1 (F STAR THERAPEUTICS, published 2019).

For assay [1], the target named is mouse LAG-3 expressed on cells (HEK cells expressing mLAG-3 or DO11.10 mLAG-3) (mouse) (UniProt Q61790). In words: cell-based or functional assay.
The next assay concerns the target human FcγRI (human) (UniProt P12314). In words: SPR (Biacore T200), FcγR immobilised, 200 µg/ml analyte.
The next assay addresses human FcγRIII (human) (UniProt P08637). Described as above.
Another assay deals with human FcγRIIa (human) (UniProt P12318). In words: SPR (Biacore T200), FcγR immobilised, 500 µg/ml analyte.
The target of a further assay is human FcγRIIb (human) (UniProt P31994). The description is as above.
Assay [2] has as its target T1, human LAG-3 expressed on cells (DO11.10 or HEK 293 cells over-expressing human LAG-3) (human, UniProt P18627 23-525).
T1 sequence: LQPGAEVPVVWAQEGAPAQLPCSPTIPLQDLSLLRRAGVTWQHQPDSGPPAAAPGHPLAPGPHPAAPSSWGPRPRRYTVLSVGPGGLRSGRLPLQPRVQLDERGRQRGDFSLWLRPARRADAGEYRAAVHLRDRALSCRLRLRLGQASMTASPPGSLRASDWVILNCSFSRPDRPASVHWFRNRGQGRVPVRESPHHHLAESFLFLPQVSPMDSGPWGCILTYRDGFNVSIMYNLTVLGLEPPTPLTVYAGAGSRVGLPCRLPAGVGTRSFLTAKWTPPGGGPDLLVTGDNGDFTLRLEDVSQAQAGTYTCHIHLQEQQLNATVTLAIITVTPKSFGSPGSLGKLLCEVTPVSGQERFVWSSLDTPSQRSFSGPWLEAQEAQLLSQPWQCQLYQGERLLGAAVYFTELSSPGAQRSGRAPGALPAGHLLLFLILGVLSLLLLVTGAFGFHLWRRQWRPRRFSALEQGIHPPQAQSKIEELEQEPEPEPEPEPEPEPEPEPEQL
In words: cell-based or functional assay.

In assay [3] the target is T2, mouse LAG-3 expressed on cells (HEK cells expressing mLAG-3 or DO11.10 mLAG-3) (mouse, UniProt Q61790 24-521).
T2 sequence: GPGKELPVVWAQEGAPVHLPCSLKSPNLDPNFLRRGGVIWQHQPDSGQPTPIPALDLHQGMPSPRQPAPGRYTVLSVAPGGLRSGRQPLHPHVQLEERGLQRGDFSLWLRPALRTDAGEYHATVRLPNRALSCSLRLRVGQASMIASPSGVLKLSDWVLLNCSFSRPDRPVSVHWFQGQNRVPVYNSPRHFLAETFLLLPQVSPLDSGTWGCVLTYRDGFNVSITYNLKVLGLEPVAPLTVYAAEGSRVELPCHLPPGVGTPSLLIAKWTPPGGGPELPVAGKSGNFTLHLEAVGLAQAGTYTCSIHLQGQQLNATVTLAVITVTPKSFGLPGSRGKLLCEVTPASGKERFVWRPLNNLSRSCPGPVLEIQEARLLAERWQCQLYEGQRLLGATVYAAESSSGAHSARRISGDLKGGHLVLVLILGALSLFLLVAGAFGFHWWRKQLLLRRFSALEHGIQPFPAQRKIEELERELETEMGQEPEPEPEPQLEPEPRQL
Description: cell-based or functional assay.

Chain of human FcγRIIb (human) (P31994 46-217 limits assumed): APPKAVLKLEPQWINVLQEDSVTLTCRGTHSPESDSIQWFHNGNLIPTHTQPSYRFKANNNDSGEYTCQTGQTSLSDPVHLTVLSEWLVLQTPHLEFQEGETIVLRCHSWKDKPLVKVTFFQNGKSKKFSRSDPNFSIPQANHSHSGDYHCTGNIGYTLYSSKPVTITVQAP
Chain of human FcγRI (human) (P12314 16-288 limits assumed): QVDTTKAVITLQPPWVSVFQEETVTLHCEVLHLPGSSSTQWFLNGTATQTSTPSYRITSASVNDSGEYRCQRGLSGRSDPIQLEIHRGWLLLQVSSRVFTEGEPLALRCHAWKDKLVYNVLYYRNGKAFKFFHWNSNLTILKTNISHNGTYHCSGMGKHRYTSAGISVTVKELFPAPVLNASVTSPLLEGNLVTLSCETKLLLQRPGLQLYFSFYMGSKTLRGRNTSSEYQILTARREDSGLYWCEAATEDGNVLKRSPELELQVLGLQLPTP
Chain of human FcγRIIa (human) (P12318 36-218 limits assumed): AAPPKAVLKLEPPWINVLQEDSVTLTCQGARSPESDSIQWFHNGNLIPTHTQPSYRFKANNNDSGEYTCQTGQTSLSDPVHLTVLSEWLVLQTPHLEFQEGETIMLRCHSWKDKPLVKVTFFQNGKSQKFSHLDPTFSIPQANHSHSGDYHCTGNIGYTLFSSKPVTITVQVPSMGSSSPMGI
Chain of human FcγRIII (human) (P08637 17-208 limits assumed): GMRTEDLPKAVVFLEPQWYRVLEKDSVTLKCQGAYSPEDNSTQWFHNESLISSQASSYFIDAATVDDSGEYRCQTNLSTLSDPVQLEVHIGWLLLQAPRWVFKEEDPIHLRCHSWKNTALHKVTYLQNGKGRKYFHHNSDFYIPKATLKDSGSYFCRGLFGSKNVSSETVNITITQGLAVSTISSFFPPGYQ

For the molecule “benchmark anti-mouse LAG-3 mAb C9B7W (2B Scientific, BE0174-50MG) (antibody)”, in assay [1], the EC50 of mIL-2 release, DO11.10 T cell activation assay (mouse LAG-3) is 5.1 nM and the Maximal IL-2 release was 48 pg/mL.

With “mock mAb LALA (control LALA IgG1 mAb) (antibody)”, the Binding response at end of association (RU) is 2 RU with human FcγRI (human), 8 RU in the assay with human FcγRIII (human), -12.7 RU in the assay with human FcγRIIa (human) and -9.6 RU with human FcγRIIb (human).

With “mock mAb IgG1 (wild type IgG1 isotype mAb, positive control without LALA) (antibody)”, the Binding response at end of association (RU) in the assay with human FcγRI (human) turned out to be 26 RU; with human FcγRIII (human) it was 44 RU; in the assay with human FcγRIIa (human), 13 RU; with human FcγRIIb (human), 17.7 RU.

B1: anti-human LAG-3 Fcab FS18-7-95 with truncated hinge and LALA mutation (designed binder)
chain: TCPPCPAPEAAGGPSVFLFPPKPKDTLMISRTPEVTCVVVDVSHEDPEVKFNWYVDGVEVHNAKTKPREEQYNSTYRVVSVLTVLHQDWLNGKEYKCKVSNKALPAPIEKTISKAKGQPREPQVYTLPPSWDEPWGEDVSLTCLVKGFYPSDIAVEWESNGYQEDNYKTTPPVLDSDGSFFLYSKLTVPYDRWVWPDEFSCSVMHEALHNHYTQKSLSLSPG
Consider B1, for which, in assay [2], the “EC50 of mIL-2 release, DO11.10 T cell activation assay (human LAG-3)” value (“EC50 of mIL-2 release … (human LAG-3)” for short) came to 0.8 nM.

B2: anti-human LAG-3 Fcab FS18-7-9 with truncated hinge and LALA mutation (designed binder)
chain: TCPPCPAPEAAGGPSVFLFPPKPKDTLMISRTPEVTCVVVDVSHEDPEVKFNWYVDGVEVHNAKTKPREEQYNSTYRVVSVLTVLHQDWLNGKEYKCKVSNKALPAPIEKTISKAKGQPREPQVYTLPPSWDEPWGEDVSLTCLVKGFYPSDIAVEWESNGQPENNYKTTPPVLDSDGSFFLYSKLTVPYDRWVWPDEFSCSVMHEALHNHYTQKSLSLSPG
Regarding B2, the “EC50 of mIL-2 release … (human LAG-3)” value in assay [2] was 1.2 nM.

B3: surrogate anti-mouse LAG-3 Fcab FS18-7-108-29 with truncated hinge, comprising LALA mutation (designed binder)
chain: TCPPCPAPEAAGGPSVFLFPPKPKDTLMISRTPEVTCVVVDVSHEDPEVKFNWYVDGVEVHNAKTKPREEQYNSTYRVVSVLTVLHQDWLNGKEYKCKVSNKALPAPIEKTISKAKGQPREPQVYTLPPSWDEPWGEDVSLTCLVKGFYPSDIVVEWESNGQPENNYKTTPPVLDSDGSFFLYSKLTVPFERWMWPDEFSCSVMHEALHNHYTQKSLSLSPG
For the molecule B3, the “EC50 of mIL-2 release, DO11.10 T cell activation assay (mouse LAG-3)” value in assay [3] came to 1.9 nM.

B4: anti-human LAG-3 Fcab FS18-7-88 with truncated hinge and LALA mutation (designed binder)
chain: TCPPCPAPEAAGGPSVFLFPPKPKDTLMISRTPEVTCVVVDVSHEDPEVKFNWYVDGVEVHNAKTKPREEQYNSTYRVVSVLTVLHQDWLNGKEYKCKVSNKALPAPIEKTISKAKGQPREPQVYTLPPSWDEPWGEDVSLTCLVKGFYPSDIAVEWESNGVPELNVKTTPPVLDSDGSFFLYSKLTVPYDRWVWPDEFSCSVMHEALHNHYTQKSLSLSPG
For B4, in assay [2], the “EC50 of mIL-2 release … (human LAG-3)” value worked out at 1.3 nM.

B5: anti-human LAG-3 Fcab FS18-7-62 with truncated hinge and LALA mutation (designed binder)
chain: TCPPCPAPEAAGGPSVFLFPPKPKDTLMISRTPEVTCVVVDVSHEDPEVKFNWYVDGVEVHNAKTKPREEQYNSTYRVVSVLTVLHQDWLNGKEYKCKVSNKALPAPIEKTISKAKGQPREPQVYTLPPSWDEPWGEDVSLTCLVKGFYPSDIAVEWESNGIPEWNYKTTPPVLDSDGSFFLYSKLTVPYDRWVWPDEFSCSVMHEALHNHYTQKSLSLSPG
On to B5, for which, in assay [2], the “EC50 of mIL-2 release … (human LAG-3)” value was 1.1 nM.

B6: anti-human LAG-3 Fcab FS18-7-32 with truncated hinge and LALA mutation (designed binder)
chain: TCPPCPAPEAAGGPSVFLFPPKPKDTLMISRTPEVTCVVVDVSHEDPEVKFNWYVDGVEVHNAKTKPREEQYNSTYRVVSVLTVLHQDWLNGKEYKCKVSNKALPAPIEKTISKAKGQPREPQVYTLPPSWDEPWGEDVSLTCLVKGFYPSEIAVEWESNGQPENNYKTTPPVLDSDGSFFLYSKLTVPYDRWVWPDEFSCSVMHEALHNHYTQKSLSLSPG
Turning to B6, the “EC50 of mIL-2 release … (human LAG-3)” value in assay [2] worked out at 1.7 nM.

B7: anti-human LAG-3 Fcab FS18-7-36 with truncated hinge and LALA mutation (designed binder)
chain: TCPPCPAPEAAGGPSVFLFPPKPKDTLMISRTPEVTCVVVDVSHEDPEVKFNWYVDGVEVHNAKTKPREEQYNSTYRVVSVLTVLHQDWLNGKEYKCKVSNKALPAPIEKTISKAKGQPREPQVYTLPPSWDEPWGEDVSLTCLVKGFYPSDIAVEWESNGQPENNYKTTPPVLDSDGSYFLYSKLTVPYDRWVWPDEFSCSVMHEALHNHYTQKSLSLSPG
Take B7: the “EC50 of mIL-2 release … (human LAG-3)” value in assay [2] was found to be 1.3 nM.

B8: surrogate anti-mouse LAG-3 Fcab FS18-7-108-35 with truncated hinge, comprising LALA mutation (designed binder)
chain: TCPPCPAPEAAGGPSVFLFPPKPKDTLMISRTPEVTCVVVDVSHEDPEVKFNWYVDGVEVHNAKTKPREEQYNSTYRVVSVLTVLHQDWLNGKEYKCKVSNKALPAPIEKTISKAKGQPREPQVYTLPPSWDEPWGEDVSLTCLVKGFYPSDISVEWESNGQPENNYKTTPPVLDSDGSFFLYSKLTVPFERWMWPDEFSCSVMHEALHNHYTQKSLSLSPG
For the molecule B8, the “EC50 of mIL-2 release, DO11.10 T cell activation assay (mouse LAG-3)” value in assay [3] was 1.8 nM.

B9: anti-human LAG-3 Fcab FS18-7-58 with truncated hinge and LALA mutation (designed binder)
chain: TCPPCPAPEAAGGPSVFLFPPKPKDTLMISRTPEVTCVVVDVSHEDPEVKFNWYVDGVEVHNAKTKPREEQYNSTYRVVSVLTVLHQDWLNGKEYKCKVSNKALPAPIEKTISKAKGQPREPQVYTLPPSWDEPWGEDVSLTCLVKGFYPSDIAVEWESNGYPEIEFKTTPPVLDSDGSFFLYSKLTVPYDRWVWPDEFSCSVMHEALHNHYTQKSLSLSPG
As for B9, the “EC50 of mIL-2 release … (human LAG-3)” value in assay [2] turned out to be 1.3 nM.

B10: anti-human LAG-3 Fcab FS18-7-33 with truncated hinge and LALA mutation (designed binder)
chain: TCPPCPAPEAAGGPSVFLFPPKPKDTLMISRTPEVTCVVVDVSHEDPEVKFNWYVDGVEVHNAKTKPREEQYNSTYRVVSVLTVLHQDWLNGKEYKCKVSNKALPAPIEKTISKAKGQPREPQVYTLPPSWDEPWGEDVSLTCLVKGFYPSDIAVEWESNGQPEDNYKTTPPVLDSDGSFFLYSKLTVPYDRWVWPDEFSCSVMHEALHNHYTQKSLSLSPG
With B10, the “EC50 of mIL-2 release … (human LAG-3)” value in assay [2] was 1.1 nM.

B11: anti-human LAG-3 Fcab FS18-7-78 with truncated hinge and LALA mutation (designed binder)
chain: TCPPCPAPEAAGGPSVFLFPPKPKDTLMISRTPEVTCVVVDVSHEDPEVKFNWYVDGVEVHNAKTKPREEQYNSTYRVVSVLTVLHQDWLNGKEYKCKVSNKALPAPIEKTISKAKGQPREPQVYTLPPSWDEPWGEDVSLTCLVKGFYPSDIAVEWESNGYKEENYKTTPPVLDSDGSFFLYSKLTVPYDRWVWPDEFSCSVMHEALHNHYTQKSLSLSPG
For the molecule B11, the “EC50 of mIL-2 release … (human LAG-3)” value in assay [2] was determined as 1 nM.

B12: anti-human LAG-3 Fcab FS18-7-65 with truncated hinge and LALA mutation (designed binder)
chain: TCPPCPAPEAAGGPSVFLFPPKPKDTLMISRTPEVTCVVVDVSHEDPEVKFNWYVDGVEVHNAKTKPREEQYNSTYRVVSVLTVLHQDWLNGKEYKCKVSNKALPAPIEKTISKAKGQPREPQVYTLPPSWDEPWGEDVSLTCLVKGFYPSDIAVEWESNGYAEYNYKTTPPVLDSDGSFFLYSKLTVPYDRWVWPDEFSCSVMHEALHNHYTQKSLSLSPG
B12: the “EC50 of mIL-2 release … (human LAG-3)” value in assay [2] is 1.1 nM.
